Results on two molecules are retold here after publication PMC4466255, “Direct Ionic Regulation of the Activity of Myo-Inositol Biosynthesis Enzymes in Mozambique Tilapia” (PLoS ONE, 2015).

One series concerns the target T1, MIPS-160 (Oreochromis mossambicus, UniProt Q1KN76).
T1 construct: full-length CDS from seawater-acclimated gill cDNA, pET24a, 6xHis tag kept (C-terminal in Results, amino-terminal in Methods), E. coli Rosetta 2(DE3)pLysS, 61 kDa
T1 sequence (Q1KN76 1-518): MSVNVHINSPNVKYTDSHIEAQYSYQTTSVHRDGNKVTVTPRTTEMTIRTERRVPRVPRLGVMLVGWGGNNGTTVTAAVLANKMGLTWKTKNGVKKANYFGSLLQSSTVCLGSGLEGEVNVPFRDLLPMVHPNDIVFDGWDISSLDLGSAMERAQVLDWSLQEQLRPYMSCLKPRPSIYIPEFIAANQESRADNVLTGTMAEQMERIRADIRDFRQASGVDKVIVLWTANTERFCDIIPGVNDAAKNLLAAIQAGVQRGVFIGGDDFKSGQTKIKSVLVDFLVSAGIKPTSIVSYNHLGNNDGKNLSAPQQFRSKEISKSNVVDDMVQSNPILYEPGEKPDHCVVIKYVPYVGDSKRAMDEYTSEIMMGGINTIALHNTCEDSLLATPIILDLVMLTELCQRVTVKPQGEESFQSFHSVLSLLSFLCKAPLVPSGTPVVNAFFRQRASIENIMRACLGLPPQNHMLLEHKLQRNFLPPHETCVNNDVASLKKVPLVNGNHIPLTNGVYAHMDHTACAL
The experiment in a line: activity with or without NAD+. Particulars: G6P as substrate; 28°C. It is filed as biochemical.

Substrate in series [1]: O=P(O)(O)O[C@@H]1[C@@H](O)[C@H](O)[C@@H](O)[C@H](O)[C@@H]1O
The experiment in a line: Pi release, BioMol Green, Michaelis-Menten fit. It is filed as biochemical, Oreochromis mossambicus. Particulars: 50 mM Tris-HCl pH 8.2, 50 mM NaCl, 1 mM MgCl2, 28°C, standard buffer IAB, 220 mOsm. An excerpt:
(§1) Pi release, BioMol Green, Michaelis-Menten fit on IMPase 1

Substrate in series [2]: O=P(O)(O)O[C@@H]1[C@H](O)[C@H](O)[C@@H](O)[C@H](O)[C@H]1O
Description: Pi release, BioMol Green, Michaelis-Menten fit. Format: biochemical, Oreochromis mossambicus. The conditions noted are these: 50 mM Tris-HCl pH 8.2, 50 mM NaCl, 1 mM MgCl2, 28°C, standard buffer IAB, 220 mOsm.
Text: as §1

In the case of `NC(=O)c1ccc[n+]([C@@H]2O[C@H](COP(=O)(O)OP(=O)(O)OC[C@H]3O[C@@H](n4cnc5c(N)ncnc54)[C@H](O)[C@@H]3O)[C@@H](O)[C@H]2O)c1` [NAD^+], at MIPS-160, the “activity with or without NAD+” value is listed as “MIPS-160 activity depends on NAD^+ (Fig 5B)”.

B1: IMPase 1 (Oreochromis mossambicus) (protein)
chain: MEDPWQKAYDFAVAVARKAGAEIRKAGESEIRVMTKSSTVDLVTKTDERVEKIIIGSLKEEFGEGTHCFIGEESVAKGEPCILTDKPTWIIDPVDGTTNFVHGFPFVAVSIAFAVNKELEFGVVYSCLEDKMYKARKGKGAFCDNEPIAVSDVKDINRSIIIFEHGTDRSPEKVTKIFFTMQKILCIPVHGLRGSGTAGYKQCLVVIGGSEGVFDIGIHCWDIAAGADIVKEAGGILLDVDGGPFDLMSRRMVSANNETIAKRIIKEIEIFPVVRDDAPIEKK
notes: full-length CDS from seawater-acclimated gill cDNA, pET24a, 6xHis tag kept (C-terminal in Results, amino-terminal in Methods), E. coli Rosetta 2(DE3)pLysS, 32 kDa
The Km is the substrate concentration at which the rate is half of its maximum. Usually Vmax stands for the top rate of the reaction or transport when substrate is in excess. As a reminder, the kcat is the number of substrate molecules converted per active site and unit of time at saturation. Usually kcat/Km stands for the turnover number divided by the Michaelis constant. B1: in series [1], the Km is 930 ± 350 µM, the Vmax turned out to be 0.0027 ± 0.0006 nmol/s, the kcat was found to be 0.962 ± 0.102 s⁻¹ and the catalytic efficiency (kcat/Km) worked out at 1050 ± 200 M⁻¹ s⁻¹. In addition, in series [2], the Km came out at 538 ± 74 µM, the Vmax stood at 0.0073 ± 0.0007 nmol/s, the kcat is 2.585 ± 0.112 s⁻¹ and the kcat/Km came to 4800 ± 1100 M⁻¹ s⁻¹.
